According to patent US7078507 (US Dept. of Health and Human Services, dated 2006):

Tests used:
[1] = target: T1, erythrocytes (red blood cells) carrying the EBA-175 receptor glycophorin A (human, UniProt P02724 20-150, sialic acid residues (removed by neuraminidase treatment in FIG. 12)); test: erythrocyte binding assay
T1 construct: whole, on cells; The assays used whole erythrocytes; also called RBC; human RBCs
T1 sequence: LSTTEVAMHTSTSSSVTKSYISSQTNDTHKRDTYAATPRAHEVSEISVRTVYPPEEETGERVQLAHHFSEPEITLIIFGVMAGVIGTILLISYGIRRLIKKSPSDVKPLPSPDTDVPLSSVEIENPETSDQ

[2] = target: T1, erythrocytes (red blood cells) carrying …; test: erythrocyte binding assay with human RBCs with or without neuraminidase treatment, immunoblot read-out

B1: Pichia pastoris-expressed recombinant EBA-175 region II (RII) protein, N-glycosylated (ligand)
chain: GRNTSSNNEVLSNCREKRKGMKWDCKKKNDRSNYVCIPDRRIQLCIVNLSIIKTYTKETMKDHFIEASKKESQLLLKKNDNKYNSKFCNDLKNSFLDYGHLAMGNDMDFGGYSTKAENKIQEVFKGAHGEISEHKIKNFRKKWWNEFREKLWEAMLSEHKNNINNCKNIPQEELQITQWIKEWHGEFLLERDNRSKLPKSKCKNNTLYEACEKECIDPCMKYRDWIIRSKFEWHTLSKEYETQKVPKENAENYLIKISENKNDAKVSLLLNNCDAEYSKYCDCKHTTTLVKSVLNGNDNTIKEKREHIDLDDFSKFGCDKNSVDTNTKVWECKKPYKLSTKDVCVPPRRQELCLGNIDRIYDKNLLMIKEHILAIAIYESRILKRKYKNKDDKEVCKIINKTFADIRDIIGGTDYWNDLSNRKLVGKINTNSNYVHRNKQNDKLFRDEWWKVIKKDVWNVISWVFKDKTVCKEDDIENIPQFFRWFSEWGDDYCQDKTKMIETLKVECKEKPCEDDNCKRKCNSYKEWISKKKEEYNKQAKQYQEYQKGNNYKMYSEFKSIKPEVYLKKYSEKCSNLNFEDEFKEELHSDYKNKCTMCPEVKDVPISIIRNNEQTS
modifications: about 1 of 5 putative N-glycosylation sites occupied (Man14-16GlcNAc2) when expressed in P. pastoris
notes: also called EBA-175 RII; P. pastoris derived EBA-175 RII protein
B1: binds [1].

B2: Non-N-glycosylated EBA-175 RII protein (RII-N-Gly-) expressed in Pichia pastoris (ligand)
chain: GRQTSSNNEVLSNCREKRKGMKWDCKKKNDRSNYVCIPDRRIQLCIVNLAIIKTYTKETMKDHFIEASKKESQLLLKKNDNKYNSKFCNDLKNSFLDYGHLAMGNDMDFGGYSTKAENKIQEVFKGAHGEISEHKIKNFRKKWWNEFREKLWEAMLSEHKNNINNCKNIPQEELQITQWIKEWHGEFLLERDNRAKLPKSKCKNNALYEACEKECIDPCMKYRDWIIRSKFEWHTLSKEYETQKVPKENAENYLIKISENKNDAKVSLLLNNCDAEYSKYCDCKHTTTLVKSVLNGNDNTIKEKREHIDLDDFSKFGCDKNSVDTNTKVWECKKPYKLSTKDVCVPPRRQELCLGNIDRIYDKNLLMIKEHILAIAIYESRILKRKYKNKDDKEVCKIIQKTFADIRDIIGGTDYWNDLSNRKLVGKINTNSNYVHRNKQNDKLFRDEWWKVIKKDVWNVISWVFKDKTVCKEDDIENIPQFFRWFSEWGDDYCQDKTKMIETLKVECKEKPCEDDNCKRKCNSYKEWISKKKEEYNKQAKQYQEYQKGNNYKMYSEFKSIKPEVYLKKYSEKCSNLNFEDEFKEELHSDYKNKCTMCPEVKDVPISIIRNNEQTS
notes: also called mutated RII protein; non-N-glycosylated RII
B2: binds [2].
